Format in all cases: biochemical
In assay [1] the target is T1, R. rubrum RubisCO (Rhodospirillum rubrum, UniProt P04718).
T1 sequence (P04718 1-466): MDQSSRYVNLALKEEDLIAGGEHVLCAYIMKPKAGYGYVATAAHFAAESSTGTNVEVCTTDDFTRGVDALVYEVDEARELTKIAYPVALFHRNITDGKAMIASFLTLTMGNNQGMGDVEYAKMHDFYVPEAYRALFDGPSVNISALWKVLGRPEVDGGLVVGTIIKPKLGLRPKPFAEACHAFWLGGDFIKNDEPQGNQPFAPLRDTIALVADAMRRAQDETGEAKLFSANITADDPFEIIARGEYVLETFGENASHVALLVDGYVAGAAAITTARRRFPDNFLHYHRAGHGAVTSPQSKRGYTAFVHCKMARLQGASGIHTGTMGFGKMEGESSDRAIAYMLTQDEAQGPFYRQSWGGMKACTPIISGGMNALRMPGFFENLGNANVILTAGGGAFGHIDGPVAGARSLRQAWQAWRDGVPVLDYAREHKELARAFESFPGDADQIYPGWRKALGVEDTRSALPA
As to the kind of experiment: RubisCO functional assay (activity of free, nanotube-bound or monomer-exposed enzyme). As to the method:
Although the samples were identical in purity and composition, the resultant activity of the bound RubisCO varied. […] Thus, by pelleting the nanotube by ultracentrifugation, followed by additional washing of the pellet, prior to adding the enzyme, the activity increased dramatically to 67%.
Nanotubes for this experiment were set up with 10 mM monomer in 1 mL buffer and aged for ˜5 days at room temperature. Nanotubes were then isolated using ultracentrifugation and re-suspended back in 1 mL buffer with 0.1 mg of R. rubrum RubisCO. This suspension was incubated at 1° C. for 15 hrs prior to ultracentrifugation and re-suspension of the final nanotubes in 1 mL buffer.

Assay [2] addresses T1, R. rubrum RubisCO. As to the kind of experiment: Stability of nanotube-RubisCO co-assembly to proteolysis by subtilisin over 45 minutes. As to conditions: within 45 minutes; FIG. 5. How it is done:
Subtilisin is a non-specific, serine protease capable of rapidly degrading proteins by amide bond cleavage. The stability of the nanotube-RubisCO co-assembly to proteolysis by subtilisin was evaluated over 45 minutes and compared to the free R. rubrum RubisCO. […] In contrast, the bound enzyme retains 75% of its activity upon exposure to the protease over this time range.

The target in assay [3] is T1, R. rubrum RubisCO. As to the kind of experiment: RubisCO functional assay (activity of free, nanotube-bound or monomer-exposed enzyme). The conditions noted are these: initial functional assays.
Setting [4] is: RubisCO alone or with pre-formed nanotubes added.
Where [5] appears, read: pre-formed nanotubes from 10 mM monomer aged ~5 days, isolated by ultracentrifugation, re-suspended with 0.1 mg RubisCO in 1 mL buffer, 15 hrs.
Setting [6] is: Subtilisin (0.5 μg/ml; 30° C./1 hr).

Consider “Pure R. rubrum RubisCO: RubisCO dimer from the bacterium Rhodospirillum rubrum, a CO2-fixing enzyme, free form”, for which the “% Activity retained” value worked out at 100% with R. rubrum RubisCO [1] (setting [4]); 100% with R. rubrum RubisCO [1] (setting [5]); 77% in the assay with R. rubrum RubisCO [3] (Heat (65° C./10 min)); 7% in the assay with R. rubrum RubisCO [3] (setting [6]); 100% with R. rubrum RubisCO [3] (untreated or no treatment stated, relative to pure R. rubrum RubisCO); 104% with R. rubrum RubisCO [3] (untreated or no treatment stated, relative to pure R. rubrum RubisCO, listed as 0.1 mg/ml R. rubrum RubisCO (after 80K spin)). Moreover, the “Activity” value in the assay with R. rubrum RubisCO [1] (setting [4]) came to 3405 nmol/min/mg; with R. rubrum RubisCO [1] (setting [5]) it was 1803 nmol/min/mg; with R. rubrum RubisCO [3] (Heat (65° C./10 min)), 2248 nmol/min/mg; with R. rubrum RubisCO [3] (setting [6]), 212 nmol/min/mg; with R. rubrum RubisCO [3] (untreated or no treatment stated), 2903 nmol/min/mg; with R. rubrum RubisCO [3] (untreated or no treatment stated, listed as 0.1 mg/ml R. rubrum RubisCO (after 80K spin)), 3007 nmol/min/mg. In addition, the “loss of activity in presence of subtilisin” value with R. rubrum RubisCO [2] amounted to 80%.

For the origin of these results see patent US20180185502A1, “IMMOBILIZATION OF BIOMOLECULES BY SELF-ASSEMBLED NANOSTRUCTURES” (priority 2015, published 2018).
